{
  "source": "patent US20210060185A1",
  "binders": {"B1": {"name": "WT Ana GvpC (under pTet promoter) (protein)", "chain": "MISLMAKIRQEHQSIAEKVAELSLETREFLSVTTAKRQEQAEKQAQELQAFYKDLQETSQQFLSETAQARIAQAEKQAQELLAFHKELQETSQQFLSATAQARIAQAEKQAQELLAFYQEVRETSQQFLSATAQARIAQAEKQAQELLAFHKELQETSQQFLSATADARTAQAKEQKESLLKFRQDLFVSIFG"}},
  "biological_target": "T1, GvpA of Anabaena flos-aquae (primary shell protein of the gas vesicle) (Anabaena flos-aquae) (UniProt P10397)",
  "T1 sequence": "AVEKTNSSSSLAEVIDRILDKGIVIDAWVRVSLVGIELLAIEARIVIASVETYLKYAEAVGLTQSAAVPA",
  "experiment": "cell-based or functional assay",
  "data": [
    {"binder": "B1", "values": [
      {"measurement": "nonlinear ultrasound contrast of Nissle cells expressing ASGClpXP, with against without aTc induction of WT GvpC", "value": 10, "unit": "dB"}
    ]}
  ]
}
